# Source: patent publication US20170073430A1 (published 2017)
# Where two headings read alike, the source gives them in different places.
# T1: monomeric hRNF43-His antigen (UniProt Q68DV7 24-197)
# T1 chain: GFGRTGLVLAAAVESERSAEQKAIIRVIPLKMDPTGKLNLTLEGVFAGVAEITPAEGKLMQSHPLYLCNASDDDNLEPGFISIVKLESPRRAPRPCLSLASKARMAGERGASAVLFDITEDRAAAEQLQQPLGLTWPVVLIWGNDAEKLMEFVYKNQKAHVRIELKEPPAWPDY
# B1: SC37.39 (antibody, V domains shown)
# VH: QVQLQQSAAELARPGASVKMSCKASGYTFTTYTIHWVKQRPGQGLKWIGYINPRSGYTEYNQKFQDKTTMTSDNSSSTAYIQLSSLTSEDSAVYYCARSYEFWGQGTTLTVSS
# VL: DIVMTQSQKFMSTSGGDRVSVTCKASQNVGINVAWYQQKPGQSPKALIYSASYRYSGVPNRFTGSGSGTDFTLTISNVQSEDLGDYFCHQYKTYPYTFGGGTKLEIK
# B2: SC37.3 (antibody, V domains shown)
# VH: QIQLVQSGPELKKPGETVKISCKASGYTFTNYGMNWVRQAPGKGLKWVGWINTNTGEPTYADDFKGRFAFSLETSASTAYLQISNLKNEDMSTYFCAGSHDYSFAYWGQGTLVTVSA
# VL: QAVVTQESALTTSPGETVTFTCRSSTGAVTTSNYANWVQEKPDHLFTGLIGGTNNRAPGVPARFSGSLIGDKAALTITGAQTEDEAIYFCALWYSNHWVFGGGTKLTVL
# B3: hSC37.39 (antibody, V domains shown)
# VH: QVQLVQSGAEVKKPGASVKVSCKASGYTFTTYTIHWVRQAPGQGLEWMGYINPRSGYTEYNQKFQDRVTMTRDTSTSTVYMELSSLRSEDTAVYYCARSYEFWGQGTTVTVSS
# VL: EIVMTQSPATLSVSPGERATLSCKASQNVGINVAWYQQKPGQAPRALIYSASYRYSGIPARFSGSGSGTEFTLTISSLQSEDFAVYYCHQYKTYPYTFGGGTKVEIKR
# B4: SC37.67 (antibody, V domains shown)
# VH: QVQLQQSGAELMKPGASVKISCKATGYTFSRYWIEWVKQRPGHGLEWIGEILPGSGSTNYNEKFKGKATFTADTSSNTAYMQLTSLTSEDSAVYFCERRGAYWGQGTLVTVSA
# VL: DIQMTQSSSSFSVSLGDRVTITCKASEDIYNRLAWYQQKPGNAPRLLISGATSLETGVPSRFSGSGSGKDYTLSITSLQTEDVATYHCQQNWSTPPTFGGGTKLEIK
# B5: RNF43 (other)
# chain: T1 chain
# B6: hSC37.67 (antibody, V domains shown)
# VH: QVQLVQSGAEVKKPGASVKVSCKASGYTFTRYWIEWVRQAPGQRLEWMGEILPGSGSTNYNEKFKGRVTITADTSASTAYMELSSLRSEDTAVYYCERRGAYWGQGTLVTVSS
# VL: DIQMTQSPSSLSASVGDRVTITCKASEDIYNRLAWYQQKPGKAPKLLISGATSLETGVPSRFSGSGSGTDYTLTISSLQPEDFATYYCQQNWSTPPTFGGGTKVEIKR
# B7: hSC37.2 (antibody, V domains shown)
# VH: EVQLVESGGGLVQPGGSLRLSCAASGFTFSDFDMEWVRQAPGKGLEWVGASRNKANDYTTQYSASVKGRFTISRDTSKNSLYLQMNSLKTEDTAVYYCARDRYDYALDYWGQGTTVTVSS
# VL: DIQMTQSPSSLSASVGDRVTITCKSSQTLLYYSNQKNYLAWYQQKPGKVPKLLIYWASTRDSGVPSRFSGSGSGTDFTLTISSLQPEDVATYYCQQYYNYPLTFGQGTKLEIKR
# B8: SC37.17 (antibody, V domains shown)
# VH: EVQLQQSGADLVKPGASVKLSCTGSGFNIKDTYIHWVRQRPEQGLEWIGRIDPANGKANYDPKFQGKATMTADTSSKTVYVQLSSLTSEDTAVYYCALGGGYYGMDYWGRGTSVTVSS
# VL: NIVLTQSPASLAVSLGQRATISCRASESVDSYGNSFMHWYQQKPGQPPKLLIYLASNLESGVPARFSGSGSRTDFTLTIDPVEADDAATYYCQQNNEDPLTFGAGTKLELK
# B9: hSC37.17 (antibody, V domains shown)
# VH: QVQLVQSGAEVKKPGASVKVSCKASGFNIKDTYIHWVRQAPGQGLEWMGRIDPANGKANYDPKFQGRVTMTRDTSTSTVYMELSSLRSEDTAVYYCALGGGYYGMDYWGQGTLVTVSS
# VL: DIVMTQSPDSLAVSLGERATINCRASESVDSYGNSFMHWYQQKPGQPPKLLIYLASNLESGVPDRFSGSGSGTDFTLTISSLQAEDVAVYYCQQNNEDPLTFGQGTKVEIKR
# B10: SC37.2 (antibody, V domains shown)
# VH: EVNLVESGGGLVQPGGSLRLSCATSGFTFSDFDMEWVRQPPGKRLEWIAASRNKANDYTTQYSASVKGRFIVSRDTSQSIVYIQMNALRAEDTAIYYCARDRYDYALDYWGQGTSVTVSS
# VL: DIVMSQSPSSLAVSVGEKVTMSCKSSQTLLYYSNQKNYLAWYQRKPGLSPKLLIYWASTRDSGVPDRFTGSGSGTDFTLTISSVKAEDLAVYYCQQYYNYPLTFGAGTKLELK
# How the values were obtained:
# Test in all cases: SPR
# [1] = molecular target: T1, monomeric hRNF43-His antigen
# [2] = molecular target: T1, monomeric hRNF43-His antigen
# [3] = molecular target: T1, monomeric hRNF43-His antigen
# [4] = molecular target: SC37.78
# [5] = molecular target: SC37.9
# [6] = molecular target: SC37.23
# [7] = molecular target: rSC37.17
# [8] = molecular target: rSC37.39
# [9] = molecular target: rSC37.67
# [10] = molecular target: T1, monomeric hRNF43-His antigen
binder,measurement,setting,value
B1,Kd,[1],1.1 nM
B2,Kd,[2],44 nM
B3,Kd,[1],0.34 nM
B4,Kd,[3],3.5 nM
B5,Kd,[4],10.8 nM
same,Kd,[5],160 nM
same,Kd,[6],23.7 nM
same,Kd,[7],9.3 nM
same,Kd,[8],1 nM
same,Kd,[9],5.4 nM
B6,Kd,[3],4.2 nM
B7,Kd,[2],120 nM
B8,Kd,[10],9.3 nM
B9,Kd,[10],1.2 nM
B10,Kd,[2],220 nM
